# T1: recombinant human OX40 (R&D #1493-CD) (human, UniProt P43489 29-216, limits assumed)
# T1 construct: Coated on ELISA plates
# T1 sequence (looked up): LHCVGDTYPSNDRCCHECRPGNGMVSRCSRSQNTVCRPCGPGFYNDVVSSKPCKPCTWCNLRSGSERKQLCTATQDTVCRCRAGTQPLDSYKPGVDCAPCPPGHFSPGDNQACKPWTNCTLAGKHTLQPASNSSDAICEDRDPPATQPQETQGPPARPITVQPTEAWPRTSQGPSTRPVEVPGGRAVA
# Columns and labels:
# [1] = target: T1, recombinant human OX40 (R&D #1493-CD); experiment: ELISA, coated OX40
# Method: (§1) Binding to TNFR superfamily members for which ELISA methods had already been established (CD40 and OX40) was evaluated to detect potential propensity to cross react to non-target proteins.
# (§2) ELISA plates (Greiner #655074) were coated with 50 μl/well of recombinant human OX40 (R&D #1493-CD), CD40-Fc (Ancell #504-820) or CD137 (R&D #838-4B) diluted to a final concentration of 0.5 μg/ml in PBS for 1 h at 37° C. or overnight at 4° C. Plates were washed with PBS+0.05% TWEEN20 (PBST), followed by block with PBST+1% bovine serum albumin (BSA). Antibody samples were prepared as serial 1/10 dilutions from 10-0.01 μg/ml in PBST+1% BSA and incubated for 1 h in room temperature, followed by detection using a horse radish peroxidase-conjugated anti-human kappa light chain antibody (AbD Serotec # STAR127P) and developed using SuperSignal ELISA Pico Chemiluminescent substrate (Pierce ThermoScientific #37069).
# [2] = target: T2, CD40-Fc (Ancell #504-820) (human, UniProt P25942 21-193); experiment: ELISA, coated CD40-Fc
# T2 construct: Coated on ELISA plates; not shown: Fc part of the commercial fusion protein; not described
# T2 sequence (P25942 21-193 limits assumed): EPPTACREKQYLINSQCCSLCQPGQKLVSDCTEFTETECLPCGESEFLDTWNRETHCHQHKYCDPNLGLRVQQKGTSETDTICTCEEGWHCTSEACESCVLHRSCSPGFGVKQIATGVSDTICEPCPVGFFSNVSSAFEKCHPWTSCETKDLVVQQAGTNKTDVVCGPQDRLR
# Method: as §1, §2
# [3] = target: T3, cynomolgus CD137 (ELISA, Example 15) (cynomolgus, UniProt A9YYE7 24-186); experiment: ELISA, cynomolgus CD137
# T3 construct: Reagent not described; also called cyno CD137
# T3 sequence (A9YYE7 entry or part of it): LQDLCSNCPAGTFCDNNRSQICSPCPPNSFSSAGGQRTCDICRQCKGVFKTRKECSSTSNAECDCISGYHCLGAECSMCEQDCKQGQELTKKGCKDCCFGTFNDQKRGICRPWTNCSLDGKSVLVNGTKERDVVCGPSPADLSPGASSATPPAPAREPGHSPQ
# [4] = target: T4, recombinant human CD137-Fc (R&D #838-4B) (human, UniProt Q07011 24-186); experiment: ELISA, coated human CD137-Fc
# T4 construct: Bought protein coated on ELISA plates; also called CD137 (R&D #838-4B); not shown: Fc part of the commercial fusion protein; not described
# T4 sequence (Q07011 24-186 limits assumed): as the sequence (A9YYE7 entry or part of it) above, with L4P, S19N, K50R, I66T, S67P, Y69F, E75G, A149V counted along it
# [5] = target: T5, 1550: Human CD137 with mouse domains 1, 2A and 2B (aa 24-86) (human; mouse, UniProt P20334 24-85); experiment: flow cytometry on transfected 293-F cells, human/mouse CD137 chimera
# T5 construct: domain: domains 1, 2A and 2B (aa 24-86); Human/mouse chimera transiently expressed on FreeStyle 293-F cells; Limits of the human pieces are worked out from the printed aa range
# T5 sequence (P20334 other isoform, or with tags, fused parts or gaps limits assumed): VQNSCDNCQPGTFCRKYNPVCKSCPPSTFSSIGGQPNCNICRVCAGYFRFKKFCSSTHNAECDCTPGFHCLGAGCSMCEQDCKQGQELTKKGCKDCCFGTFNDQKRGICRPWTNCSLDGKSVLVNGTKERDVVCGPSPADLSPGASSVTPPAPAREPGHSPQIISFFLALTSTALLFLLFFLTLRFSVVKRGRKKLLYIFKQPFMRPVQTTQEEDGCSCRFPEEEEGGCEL
# Method: (§3) The ability of each antibody to bind to a panel of human/mouse CD137 chimeras expressed on the surface of transfected cells was analyzed by flow cytometry.
# (§4) The chimeras were designed by exchanging domains or modules of the human CD137 with the corresponding mouse domain. Genes of CD137 human/mouse chimeras were synthesized (GenScript) and constructs cloned into pcDNA3.1 vector (Invitrogen) and transiently transfected into FreeStyle 293-F cells (Invitrogen). The transfected cells were incubated with CD137 antibodies and control antibodies, followed by incubation with anti-human IgG-PE (Jackson Immunoresearch) for detection and analyzed with FACS Verse (BD Biosciences). Binding to the different chimeric constructs was calculated as relative MFI compared to the binding of the isotype control, followed by normalization to the full-length human CD137 construct to minimize the effect of affinity differences between individual antibodies.
# [6] = target: T6, 1552: Human CD137 with mouse domains 2B, 3A and 3B (aa 64-118) (human; mouse, UniProt P20334 63-117); experiment: as above
# T6 construct: Human/mouse chimera transiently expressed on FreeStyle 293-F cells
# T6 sequence (P20334 other isoform, or with tags, fused parts or gaps limits assumed): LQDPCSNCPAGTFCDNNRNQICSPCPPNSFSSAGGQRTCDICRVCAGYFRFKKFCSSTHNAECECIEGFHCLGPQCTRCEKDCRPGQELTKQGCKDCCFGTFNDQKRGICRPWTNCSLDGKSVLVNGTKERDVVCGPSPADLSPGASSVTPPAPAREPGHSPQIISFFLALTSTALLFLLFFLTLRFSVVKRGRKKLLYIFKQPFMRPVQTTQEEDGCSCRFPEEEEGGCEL
# Method: as §3, §4
# [7] = target: T7, 1554: Human CD137 with mouse domains 3B, 4A and 4B (aa 97-159) (human; mouse, UniProt P20334 96-159); experiment: as above
# T7 construct: domain: domains 3B, 4A and 4B (aa 97-159); Human/mouse chimera transiently expressed on FreeStyle 293-F cells
# T7 sequence (P20334 other isoform, or with tags, fused parts or gaps limits assumed): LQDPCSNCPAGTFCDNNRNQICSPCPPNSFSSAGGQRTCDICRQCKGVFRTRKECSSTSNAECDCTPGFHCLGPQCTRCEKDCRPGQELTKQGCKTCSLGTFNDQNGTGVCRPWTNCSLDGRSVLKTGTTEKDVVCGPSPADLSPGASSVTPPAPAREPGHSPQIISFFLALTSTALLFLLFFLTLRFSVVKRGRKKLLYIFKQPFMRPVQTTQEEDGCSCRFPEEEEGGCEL
# Method: as §3, §4
# [8] = target: T8, 1555: Human CD137 with mouse domains 1 and 4B and region of unknown function (aa 24-46 and aa 139-186) (human; mouse, UniProt P20334 24-45; P20334 139-185); experiment: as above
# T8 construct: Human/mouse chimera transiently expressed on FreeStyle 293-F cells
# T8 sequence (P20334 other isoform, or with tags, fused parts or gaps limits assumed): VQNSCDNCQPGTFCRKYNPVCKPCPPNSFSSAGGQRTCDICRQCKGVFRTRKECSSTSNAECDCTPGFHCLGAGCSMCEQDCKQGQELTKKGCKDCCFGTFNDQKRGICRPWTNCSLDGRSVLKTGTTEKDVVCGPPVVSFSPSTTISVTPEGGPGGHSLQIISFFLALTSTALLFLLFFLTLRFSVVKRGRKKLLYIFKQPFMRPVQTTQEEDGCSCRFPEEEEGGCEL
# Method: as §3, §4
# [9] = target: T9, cynomolgus CD137 on transfected CHO cells (CHO-cyCD137) (cynomolgus (Macaca fascicularis); human); experiment: flow cytometry on CHO-cyCD137 cells; 95% confidence interval of the EC50
# T9 construct: extracellular domain;domain: transmembrane and intracellular part; also called cyno CD137
# T9 sequence (P25942 other isoform, or with tags, fused parts or gaps): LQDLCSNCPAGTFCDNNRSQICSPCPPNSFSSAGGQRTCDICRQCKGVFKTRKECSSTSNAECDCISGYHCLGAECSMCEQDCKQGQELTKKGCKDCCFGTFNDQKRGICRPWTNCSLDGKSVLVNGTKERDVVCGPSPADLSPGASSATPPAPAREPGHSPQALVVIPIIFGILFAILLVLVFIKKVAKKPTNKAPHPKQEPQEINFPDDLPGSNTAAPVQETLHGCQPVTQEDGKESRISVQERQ
# [10] = target: T10, human CD137 on transfected CHO cells (CHO-huCD137) (human); experiment: flow cytometry on CHO-huCD137 cells; 95% confidence interval of the EC50
# T10 construct: domain: transmembrane and intracellular part
# T10 sequence (P25942 other isoform, or with tags, fused parts or gaps limits assumed): as the sequence (P25942 other isoform, or with tags, fused parts or gaps) above, with L4P, S19N, K50R, I66T, S67P, Y69F, E75G, A149V counted along it
# Method: (§5) Binding and EC50 was determined using flow cytometric of CHO cells transfected with human CD137, cynomolgus CD137 or empty vector. The extracellular part of human or cynomolgus CD137 was fused to the transmembrane and intracellular part of human CD40 and cloned into pcDNA3.1. The vector was subsequently stably transfected into CHO cells. […] CD137-transfected and empty vector-transfected cells were incubated with CD137 antibodies for at least 1 h at 4° C. to saturate the binding. In order to minimize antibody internalization, 0.05% sodium azide was used in the incubation buffer and all work was performed on ice. The CD137 antibodies were detected using PE-conjugated anti-hIgG antibody (109-115-098, Jackson Immunoresearch laboratories), incubated for 30 min at 4° C. Directly after staining the cells were fixed with a paraformaldehyde solution (10× concentrate BD CellFIX, BD biosciences #340181). Cells were analyzed by flow cytometry using FACSVerse (BD Biosciences). The median fluorescence intensity (MFI) for each sample was determined and the dose response data was analysed using Graph Pad Prism.
# (§6) MFI data was normalized for each antibody, where 0% is defined as the lowest value and 100% is the highest value in the dose titration for each antibody.
# [11] = target: T10, human CD137 on transfected CHO cells …; experiment: flow cytometry on CHO cells transfected with human CD137, PE anti-hIgG detection, MFI normalised 0-100% for each antibody
# Method: as §5, §6
# [12] = target: T9, cynomolgus CD137 on transfected CHO …; experiment: flow cytometry on CHO cells transfected with cynomolgus CD137, PE anti-hIgG detection, MFI normalised 0-100% for each antibody
# Method: as §5, §6
binder,measurement,setting,value
"1630/1631 (antibody, human IgG4 S228P, kappa, V domains shown, the format in each assay is not restated) VH: EVQLLESGGGLVQPGGSLRLSCAASGFTFGYSYMSWVRQAPGKGLEWVSSIGSGSSYTYYADSVKGRFTISRDNSKNTLYLQMNSLRAEDTAVYYCARVYSSPGIDYWGQGTLVTVSS VL: DIQMTQSPSSLSASVGDRVTITCRASQSISSYLNWYQQKPGKAPKLLIYAASSLQSGVPSRFSGSGSGTDFTLTISSLQPEDFATYYCQQYYTWVPFTFGQGTKLEIKR",binding result,[1],no binding (tested: 10 µg/ml highest concentration tested)
same,binding result,[2],no binding (tested: 10 µg/ml highest concentration tested)
same,EC50,[3],850 pM
same,EC50,[4],410 pM
same,"MFI antibody/isotype control, normalized to full-length human CD137",[5],0.11
same,"MFI antibody/isotype control, normalized to full-length human CD137",[6],0.25
same,"MFI antibody/isotype control, normalized to full-length human CD137",[7],0.85
same,"MFI antibody/isotype control, normalized to full-length human CD137",[8],0.35
same,EC50,[9],0.12 to 0.16 µg/mL
same,EC50,[10],230 to 340 pM
same,EC50 (read off the curve),[11],~0.2 µg/mL
same,EC50 (read off the curve),[12],~0.1 µg/mL

# — patent US20190352411A1 (ALLIGATOR BIOSCIENCE, published 2019)
